The target of the test is HBsAg on purified human serum HBV (virions used in the Tupaia hepatocyte neutralization assay) (Hepatitis B virus). Kind of test: cell-based or functional assay.

The substance mouse monoclonal antibody MA18/7 showed a neutralization of HBV infection of primary Tupaia hepatocytes (newly produced HBsAg) of 100 µg/mL and a neutralization of HBV infection of primary Tupaia hepatocytes (newly produced HBsAg) (reciprocal dilution) of 10.
